Laboratory results reported in patent US11473073B2, “Aminopeptidases for protein hydrolyzates” (DUPONT NUTRITION BIOSCIENCES APS, priority 2015, dated 2022).

Legend:
Format in all cases: biochemical
[1] = test system: Na-caseinate; assay: Degree of hydrolysis of pre-hydrolysed Na-caseinate; details: Casein, 50° C., 20 hr
Method: (§1) The degree of hydrolyses (DH) describes the relative amount of cleaved peptides bounds compared to an acid hydrolyses of the same amount of protein conducted e.g. in 6 M HCL at ˜120° C. for ˜24 h. The higher the DH can therefore be applied to assess the efficiency of amino acid liberation of a general PepN such as a PepN 1 or a PepN 2 type. The cell free culture broth was concentrated (10 kDa cut-off, Sartorius, Göttingen, Germany) and desalted applying a disposal desalting column (PD10, GE, Munchen, Germany) as described by the manufacturer. As substrates were pre-hydrolysed 10% (w/w) Na-caseinate (DMK, Germany), whey protein isolate (WPI; Arla, Viby, Denmark), soy protein isolate (SPI; SUPRO® 760, DuPont, Brabrand, Denmark) and gluten suspensions were applied. The pre-hydrolysis was conducted with 1% (w/wprotein) of FOODPRO® Alkaline Protease, 1% (w/wprotein) FOODPRO® PNL for the Na-Caseinate, the WPI as well as the SPI suspension. All pre-hydrolyses were conducted at 55° C. for 18 h followed by an inactivation step at 95° C. for 20 min. Each applied PepN 2 has been inactivated at 95 C for 15 min as a control of the elimination of any carryover of amino acids from the culture broth to the final hydrolyses as well as for the sufficient inactivation of the applied endopeptidases. The hydrolyses were conducted in a 96-well micro titer plate format and consisted of 150 μL of the pre-hydrolyzed protein suspension combined with 50 μL of a PepN 2 stock solution as indicated in Table 1 below. The hydrolyses were conducted at 50° C. for 20 hr, subsequently, the hydrolysis were stopped by the addition of 20 μL 2 M TCA (Trichloroacetic acid, Sigma-Aldrich, Schnelldorf, Germany). The efficiency of the amino acid liberation of the PepN 2 types from Neosartorya fischeri and Aspergillus clavatus can be seen in Table 1 (B) and (A). […] For the gluten hydrolyses, an increased DH was noticed in the protein range from 0.02-0.3 mg/mL PepN 2.

[2] = test system: whey protein isolate (WPI); assay: Degree of hydrolysis of pre-hydrolysed whey protein isolate; details: 50° C., 20 hr
Method: as §1

[3] = test system: soy protein isolate (SPI); assay: Degree of hydrolysis of pre-hydrolysed soy protein isolate; details: 50° C., 20 hr
Method: as §1

[4] = test system: gluten; assay: Degree of hydrolysis of pre-hydrolysed gluten; details: 50° C., 20 hr
Method: as §1

[5] = test system: peptide WHWLQLKPGQPMY (SEQ ID NO:26); assay: Hydrolysis of proline containing peptide, LC-MS; details: peptide 1 mg/mL, aminopeptidase 1 ug/mL, CPB-Buffer, 55° C.; FIG. 5-7
Method: The peptide […] (SEQ ID NO:26) was hydrolysed with TRI03 and TRI035. The peptide (1 mg/mL) was incubated with 1 ug/mL of the aminopeptidase in 20 mM CPB-Buffer (20 mM Citric acid, 20 mM Phosphate. 20 mM Boric acid) at 55° C. Aliquots (50 μL) were stopped with 50 rel 5% TFA at the indicated time points and subjected to LC-MS analysis.
Capillary LC-MS/MS analyses were performed using an Agilent 1100 LC system (Agilent Technologies) interfaced to a LTQ Orbitrap Classic hybrid mass spectrometer (Thermo Scientific, Bremen, Germany). Samples were loaded onto a 15 cm Phenomenix Jupiter 4μ Proteo 90A, C4 analytical column. Separation was performed at a flow rate of 16 μL/min using a 10 min gradient of 0-40% Solvent B H2O/CH3CN/HCOOH (50/950/0.65 v/v/v) into the IONMAX® ion source (Thermo Scientific, San Jose). The LTQ Orbitrap Classic instrument was operated in a data-dependent MS/MS mode. The peptide masses were measured by the Orbitrap (MS scans were obtained with a resolution of 60 000 at m/z 400), and up to 2 of the most intense peptide m/z were selected and subjected to fragmentation using CID in the linear ion trap (LTQ). Dynamic exclusion was enabled with a list size of 500 masses, duration of 40 s, and an exclusion mass width of ±10 ppm relative to masses on the list.
The RAW files were accessed with the program Skyline 2.6.0.7176 (MacLean, B., et al., “Skyline: an open source document editor for creating and analyzing targeted proteomics experiments”, Bioinformatics, 2010, 26(7): p. 966-8) which uses the MS1 intensities to build chromatograms (Schilling, B., et al., “Platform-independent and label-free quantitation of proteomic data using MS1 extracted ion chromatograms in skyline: application to protein acetylation and phosphorylation”, Mol Cell Proteomics, 2012. 11(5): p. 202-14). The precursor isotopic import filter was set to a count of three, (M, M+1, and M+2) at a resolution of 60,000 and the most intense charge state was used. Peptide sequences of the substrate as well as cleavage products were typed into Skyline and intensities were calculated in each sample. […]

[6] = Product inhibition of H-Ala-pNA hydrolysis by amino acid inhibitor mix; details: pH 9.0, 30° C.
Method: Sigma cat # D2650). […] […] and proline were dissolved in DMSO. All other amino acids were dissolved in buffer. […] The reaction was started by adding 20 μL substrate. Only one substrate concentration was used per plate.

[7] = inactivated enzyme at the highest conc.

B1: TRI035: fungal aminopeptidase type-2 (pepN_2), NCBI XP_001273779 from Aspergillus clavatus NRRL 1 (protein)
chain: MQTFGAFLVSFLAASGLAAANAPGGPGGHGRKLPVNPKTFPNEIRLKDLLHGSQKLEDFAYAYPERNRVFGGQAHLDTVNYLYRELKKTGYYDVYKQPQVHQWTRADQSLTLGGDSIQASTMTYSPSVNVTAPLSLVSKLGCAEGDYSADVKGKIALVSRGECSFAQKSVLSAKAGAVATIVYNNVDGSLAGTLGGATSELGPYSPIIGITLAAGQDLVARLQAAPTEVSLWIDSKVENRTTYNVIAQTKGGDPNNVVALGGHTDSVENGPGINDDGSGVISNLVVAKALTRYSVKNAVRFCFWTAEEFGLLGSNYYVDNLSPAELAKIRLYLNFDMIASPNYALMIYDGDGSAFNLTGPPGSAQIESLFENYYKSIKQGFVPTAFDGRSDYEGFILKGIPAGGVFTGAESLKTEEQARLFGGQAGVALDANYHAKGDNMTNLNHKAFLINSRATAFAVATYANNLSSIPPRNATVVKRESMKWTKREEPHTHGADTGCFASRVKE
modifications: Synthetic peptide with leader sequence
- Degree of hydrolysis ([1]; PepN 2 stock 0.02 mg/mL): 16%
- Degree of hydrolysis ([1]; PepN 2 stock 0.03 mg/mL): 19%
- Degree of hydrolysis ([1]; PepN 2 stock 0.04 mg/mL): 19%
- Degree of hydrolysis ([1]; PepN 2 stock 0.05 mg/mL): 20%
- Degree of hydrolysis ([1]; PepN 2 stock 0.1 mg/mL): 21%
- Degree of hydrolysis ([1]; PepN 2 stock 0.15 mg/mL): 23%
- Degree of hydrolysis ([1]; PepN 2 stock 0.2 mg/mL): 24%
- Degree of hydrolysis ([1]; PepN 2 stock 0.25 mg/mL): 24%
- Degree of hydrolysis ([1]; PepN 2 stock 0.3 mg/mL): 24%
- Degree of hydrolysis ([1]; PepN 2 stock 0.35 mg/mL): 27%
- Degree of hydrolysis [1, 7]: 8%
- Degree of hydrolysis ([2]; PepN 2 stock 0.02 mg/mL): 19%
- Degree of hydrolysis ([2]; PepN 2 stock 0.03 mg/mL): 20%
- Degree of hydrolysis ([2]; PepN 2 stock 0.04 mg/mL): 21%
- Degree of hydrolysis ([2]; PepN 2 stock 0.05 mg/mL): 22%
- Degree of hydrolysis ([2]; PepN 2 stock 0.1 mg/mL): 23%
- Degree of hydrolysis ([2]; PepN 2 stock 0.15 mg/mL): 27%
- Degree of hydrolysis ([2]; PepN 2 stock 0.2 mg/mL): 25%
- Degree of hydrolysis ([2]; PepN 2 stock 0.25 mg/mL): 28%
- Degree of hydrolysis ([2]; PepN 2 stock 0.3 mg/mL): 29%
- Degree of hydrolysis ([2]; PepN 2 stock 0.35 mg/mL): 29%
- Degree of hydrolysis [2, 7]: 8%
- Degree of hydrolysis ([3]; PepN 2 stock 0.02 mg/mL): 11%
- Degree of hydrolysis ([3]; PepN 2 stock 0.03 mg/mL): 12%
- Degree of hydrolysis ([3]; PepN 2 stock 0.04 mg/mL): 13%
- Degree of hydrolysis ([3]; PepN 2 stock 0.05 mg/mL): 14%
- Degree of hydrolysis ([3]; PepN 2 stock 0.1 mg/mL): 16%
- Degree of hydrolysis ([3]; PepN 2 stock 0.15 mg/mL): 15%
- Degree of hydrolysis ([3]; PepN 2 stock 0.2 mg/mL): 17%
- Degree of hydrolysis ([3]; PepN 2 stock 0.25 mg/mL): 21%
- Degree of hydrolysis ([3]; PepN 2 stock 0.3 mg/mL): 21%
- Degree of hydrolysis ([3]; PepN 2 stock 0.35 mg/mL): 21%
- Degree of hydrolysis [3, 7]: 6%
- Degree of hydrolysis ([4]; PepN 2 stock 0.02 mg/mL): 12%
- Degree of hydrolysis ([4]; PepN 2 stock 0.03 mg/mL): 14%
- Degree of hydrolysis ([4]; PepN 2 stock 0.04 mg/mL): 15%
- Degree of hydrolysis ([4]; PepN 2 stock 0.05 mg/mL): 15%
- Degree of hydrolysis ([4]; PepN 2 stock 0.1 mg/mL): 17%
- Degree of hydrolysis ([4]; PepN 2 stock 0.15 mg/mL): 18%
- Degree of hydrolysis ([4]; PepN 2 stock 0.2 mg/mL): 17%
- Degree of hydrolysis ([4]; PepN 2 stock 0.25 mg/mL): 19%
- Degree of hydrolysis ([4]; PepN 2 stock 0.3 mg/mL): 19%
- Degree of hydrolysis ([4]; PepN 2 stock 0.35 mg/mL): 22%
- Degree of hydrolysis [4, 7]: 4%
- hydrolysis of WHWLQLKPGQPMY to KPGQPMY and further down to QPMY [5]: can hydrolyze
- product inhibition compared to TRI063 from A. oryzae [6]: less inhibited by product
